In US20120196803A1:

Each substance was assayed against GFRα1 receptor/IgG Fc fusion (assay: double sandwich ELISA, GFRα1/IgG Fc captured on plate).
With “An2-Flex-hGDNF (N-terminal Angiopep-2 fused to hGDNF^78-211 through a flexible ((GGGGS)2) linker) (from UniProt P39905 78-211)” the Bmax was 0.161 A405/min and the Kd was 0.16 nM.
With “An2-Hel-hGDNF (N-terminal Angiopep-2 fused to hGDNF^78-211 through a helical (A(EAAAK)2A) linker) (from UniProt P39905 78-211)” the Bmax was 0.142 A405/min and the Kd was 0.27 nM.
“An2-Rig-hGDNF (N-terminal Angiopep-2 fused to hGDNF^78-211 through a rigid (PAPAP) linker) (from UniProt P39905 78-211)” gave a Bmax of 0.202 A405/min and a Kd of 0.82 nM.
“An2-hGDNF (N-terminal Angiopep-2 fused to hGDNF^78-211) (from UniProt P39905 78-211)” showed a Bmax of 0.146 A405/min and a Kd of 0.68 nM.
“An2NT-hGDNF (N-terminal reversed sequence Angiopep-2 fused to hGDNF^78-211) (from UniProt P39905 78-211)” showed a Bmax of 0.161 A405/min and a Kd of 0.31 nM.
Work on “GDNF (hGDNF^78-211) (from UniProt P39905 78-211) (ligand)” yielded a Bmax of 0.155 A405/min and a Kd of 0.24 nM.
“hGDNF-An2 (C-terminal Angiopep-2 fused to hGDNF^78-211) (from UniProt P39905 78-211)” gave a Bmax of 0.155 A405/min and a Kd of 0.53 nM.
